The source of these data is the supplement of paper PMC12042874.

± gives the uncertainty stated by the source.

This data set can be described thus: amyloid nucleation score (Sup35N fusion, yeast selection) (log enrichment); library NNK1; higher = more nucleation; inactive = no reads after selection. In short, it runs like this: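 Output and input plasmid inserts were sequenced by Illumina after psi-negative yeast carrying Sup35N fused to peptides of 20 random codons had been induced 24 hours with 100 μM copper sulfate and grown 7 days at 30°C on medium lacking adenine and uracil. The nucleation score is the DiMSum log enrichment of output over input reads, centred on the mode score of non-aggregating sequences. Sequences with under 100 input reads were excluded.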

The substance VGHNGIFYC gave an amyloid nucleation score of -0.063 ± 0.29.
Next, QLAERTGVHCSQFTKWFFKM: 1.72 ± 0.38.
With KCAWNQVNDSNLVAYRASC the figure was 5.13 ± 0.097; with QLEDAVKMGLVEFEGRSHGS, 0.78 ± 0.29.
The substance AYTEMNLRIVERYSMNTIRP came in with an amyloid nucleation score of 2.14 ± 0.26.
The substance CLMIKMHSILIDVIYLHTRV showed an amyloid nucleation score of -0.363 ± 0.77.
Regarding VIILPGGVCMMVC, the amyloid nucleation score was 0.843 ± 0.41.
Next, CRSTYDQLPEYLST: -0.117 ± 0.56; SFGNVILSGIIRTTVLDRGV: -0.381 ± 0.74.
Next, YMVLS: 0.9 ± 0.85; SMMSGCGTGVAPKAWSGDGW: 0.974 ± 0.62; FTGDVPEDTLRLSSFENMRR: 0.384 ± 0.53.
On to MYLFICVGSMVNQDVNEMMR, for which the amyloid nucleation score came to 3.84 ± 0.084.
With TRYGECAGWSGPYIADSGSA the figure was -0.001 ± 0.31; with GFVEVNTCLKEVSLPSNMPS, 0.714 ± 0.5; with RFTNIFAKNRLCRLDMRRNT, -0.211 ± 0.56.
Next, TYSLYMCADKFRNTLVNKAV: “inactive”; LQTIYFLYE: 2.25 ± 0.13; GGWGRGECPYSHTKWYVKSG: -0.999 ± 0.94.
Next, TANTLRYSFCAT: -0.213 ± 0.32; MRGAVKVGEMWNHISESRVG: 0.98 ± 0.6.
Take TYCRQDRWVGSKKLSCTIDC: the amyloid nucleation score was -0.025 ± 0.23.
Next, RGTGLICCTNVCGRTWKGHN: 7.406 ± 0.047; WPGMPRS: 1.17 ± 0.35; FLLLCRSFFSARTILRCTMG: 0.072 ± 0.81.
For GNDNCVRHGGRSSSRCLMKL, the amyloid nucleation score result was “inactive”.
With LAFDYLLKFLDCR the figure was -0.47 ± 0.53.
With GTYLAFYSLSLCRYTKCLER the figure was -0.22 ± 0.47; with SNMTSRYYNCMVTWVRILVR, 1.19 ± 0.41; with YRSYTRNWTLTIPGCTLRSL, -1.93 ± 2.7.
For the substance ALDVARDKDVILYEFQLELR, the amyloid nucleation score was found to be 0.366 ± 0.72.
For LEWANDLVNCSQRIM, the amyloid nucleation score was -0.331 ± 0.88.
With ARAFPNMPPVLILILHLRLY the figure was 0.961 ± 0.35; with ISCGCMRVLTRDNLFLKFRF, 0.12 ± 0.58.
Next, LLWRVSPSTLTSAIFKCLHS: -0.741 ± 0.86; HTNVWGGAHYTSIKAN: 0.581 ± 0.31; RMYIHMYS: 1.32 ± 0.33.
FASASLLFSKPESG registered an amyloid nucleation score of -1.41 ± 2.4.
The substance MYIFVDIFAAQLVTRWKGFE showed an amyloid nucleation score of -0.97 ± 1.9.
With AIALQV the figure was -1.18 ± 0.94; with MLGYIHAEVHVIVSWNLCLK, -0.378 ± 0.53.
On to RVGSFMVNPSSCMSYAFWLR, for which the amyloid nucleation score turned out to be 0.443 ± 0.49.
Next, TGCHKS: 0.915 ± 0.97; LYMYRSYI: 0.137 ± 0.42.
In the case of LRNVYMCVQWGFMVETGASC, the amyloid nucleation score amounted to 3.35 ± 0.16.
With RSVSLC the figure was 0.907 ± 0.61.
In turn, DKPFCFILNYNSVYDCVMSV returned an amyloid nucleation score of 0.331 ± 1.2.
Next, VKRRLSHYAHMDGFVCNIR: 0.286 ± 1.4; KENRFISQSDTALYSIKKQH: 0.549 ± 1.
Next, LEYENCHCIILYLKHAQYLL: “inactive”; YRCTLASNRLRFLWITSNVR: -0.085 ± 0.58.
Next, NRKEFKCSRWHRGNWYVNAR: -0.378 ± 0.79.
As for NLKSSYSAIPLFFIWCGTSV, the amyloid nucleation score was 0.114 ± 0.31.
Next, FGAFYVGDHG: -1.7 ± 1.3; YDVVRSGFLGVDNITRLMPR: -0.27 ± 1.2; LSQLN: -0.116 ± 0.26.
Next, DAGNVLARLDGFNAG: -0.121 ± 0.49.
With STTPQRLNFDMSTPISWIRQ the figure was 0.173 ± 0.32.
Take VRNKMGSRSYSTS: the amyloid nucleation score is -1.65 ± 2.7.
With ILAIKWTSVWCMESDFPIEV the figure was -0.402 ± 0.58.
Next, YDRNCFGAPFNSVVQVTGKS: -0.94 ± 1; SVGYH: 0.699 ± 0.59.
Next, EDRDTLKGM: 0.806 ± 0.57.
The substance FFISALLNSSFGEFTFGSVK gave an amyloid nucleation score of -0.432 ± 0.65.
In turn, FMTSDPYVLIHQALVRINEY gave an amyloid nucleation score of 4.58 ± 0.095.
As for FTSSVIILCIFYWNGLVRIF, the amyloid nucleation score is -0.505 ± 1.5.
With QVSTNLVWDL the figure was 0.614 ± 1.2.
With SLDLFSIKATRSDWSGFLRT the figure was -0.613 ± 0.94; with DFFGWTNRNHQNSDSFLWDG, 0.69 ± 0.41; with TSSPSVTYLLRYRLQWTLHN, 0.035 ± 0.76.
Next, FVAISVSTIRQCGVCRGGTC: 4.29 ± 0.12; SIHVVYNPTFQMNCYTFRLS: 7.888 ± 0.05; LKLYINIIVVNYNLLSICSH: -0.504 ± 0.24.
Turning to NDGVNPYNMACKMLSCYNSA, the amyloid nucleation score was 1.14 ± 0.97.
Next, LFRLIAFWDWLYSWNRFFGW: 0.481 ± 0.43; VELLGQYVICPSTRCRIVEN: 0.254 ± 0.47; NSDNSGWWRLLYIVESGISS: 0.019 ± 1.4.
Next, RFHSFYNPQSSIDITLVGGF: 4.65 ± 0.089.
Next, FRLSWHSYNSMWINTVTSPQ: 2.75 ± 0.078.
As to VFYLCSLLCLIVKRLGQGDC, the amyloid nucleation score is 0.484 ± 0.57.
Next, FGICKYFNRFVMNIRSVDES: -0.618 ± 0.52.
Next, TFTMSWLK: 3.22 ± 0.078; LFRGFWSERSTVSMLFRSRR: -0.124 ± 0.83; IYIMKHASSSMNGVSVQDFM: 0.695 ± 0.67.
Substance RCISIRAYVTLFRNEYLCSN yielded an amyloid nucleation score of 4.86 ± 0.1.
Next, VWLSMEFLCVYTCMPCWSQL: -0.423 ± 0.55; GKIYWLLLQTDKDRRFLTMR: -0.744 ± 0.46.
Consider ERTMGLSVMWAIECCLRNPG, for which the amyloid nucleation score came to 2.05 ± 0.24.
Substance FCPTVETYNVW yielded an amyloid nucleation score of 2.12 ± 0.14.
With RPAKLMAMPKILIGPH the figure was 0.131 ± 0.26.
In the case of SGSALYLCAISLRVSTEEKP, the amyloid nucleation score is -0.178 ± 0.85.
Consider KAMLNNKWHLCSHVRTDHAV, for which the amyloid nucleation score came to 0.172 ± 0.32.
With AFGVYRVCLVWVHL the figure was 0.232 ± 0.49; with NTGWDRGHGCSLMFHRVLEW, 2.67 ± 0.13.
Next, VCYRGECVDSDLLYLSCP: -0.389 ± 1.
The substance WLLVQLYYVCYFGLRLEFSM displayed an amyloid nucleation score of -0.237 ± 0.18.
For the substance CVKLGYYWSF, the amyloid nucleation score is 0.598 ± 0.16.
Consider FCNSALLSQLGFLKTWDQRG, for which the amyloid nucleation score is -0.604 ± 1.6.
CFEDRYSLRCGM: the amyloid nucleation score is -0.397 ± 0.34.
With VLSYL the figure was -0.248 ± 0.38.
Next, YVNRVPLLEVLCP: -0.118 ± 1; IIFKSVNYLLPIVVKNMCGT: 1.16 ± 0.13; KNWARIMRNRNYSVSAILW: 0.163 ± 0.61.
With LLDLDVTLIRNHWWFKSLLA the figure was -0.047 ± 0.41; with YSDSMTIKRDSLWVIGTLEL, 1.94 ± 0.21; with IFTVSRGPVTLCWDWWETHA, 0.196 ± 0.56.
Turning to LVDSNFCVNVCAGQSRRVYG, the amyloid nucleation score is -0.712 ± 0.8.
In the case of YLDFNHM, the amyloid nucleation score entry is “inactive”.
With VCQLVILGFFLRIVTMCWLW the entry was “inactive”; with RCVMRAHFSTWLHKVSTSVW, 0.677 ± 0.54; with NIFVGLLTWLCVKLCMGMFV, -0.633 ± 0.94.
Next, GSHNAR: 0.086 ± 0.97.
In the case of RRMKFDMSNGRQGSLVNHGR, the amyloid nucleation score came out at 0.214 ± 0.53.
As to GSTCIRTGSVIVGRL, the amyloid nucleation score worked out at 0.301 ± 0.28.
LIELRIWLLHLPMYGVLESI registered an amyloid nucleation score of -0.758 ± 0.39.
NVIWVASYF returned an amyloid nucleation score of -0.914 ± 0.44.
With VDHVGGWVYWYGTRCTFVDG the figure was -0.048 ± 0.27.
Next, SVRYYLLYHNFIMSSADKLS: 6.485 ± 0.05; VQHRIISLALVYNTYNFSFS: 8.018 ± 0.074.
With RWCLVSGMILCSLLCVYSFN the figure was -1.62 ± 2.4; with VSFRMVLNYLQVGYSWGHWR, 0.395 ± 0.44; with DNRLEYSAGLVRVTRDAKGE, -0.106 ± 0.97.
The substance DPPTL had an amyloid nucleation score of 0.409 ± 0.42.
With FIAQLYVNEMFDSLTLRRGD the figure was 0.415 ± 0.33.
With PNQVYGTAFCGDEKNRMRWK the figure was 4.6 ± 0.079; with VRHSAIRGLHWSGRILRCGV, 1.01 ± 1.1; with DSVVCRKYDVIGKCQRRGTC, 0.716 ± 0.61.
With RRLYSKKILRDWLASSFSTD the entry was “inactive”.
With HHLVISCDSLENASYRLCIQ, the amyloid nucleation score came to 1.45 ± 0.43.
With TCLADLDWSRGGGYYPHRLC the figure was 0.372 ± 1.2; with SLYVYISRFMTLMGCLTVNH, 0.575 ± 0.35; with WWYSDMWMVSC, 2.34 ± 0.46.
ISWVSPDLVLSYPVYQPDGL: the amyloid nucleation score was found to be 1.93 ± 0.23.
With MATSPFGERVPFIYLDHFCY the figure was 0.009 ± 0.42; with SYEHVGKPCSCGYGVEI, 0.735 ± 0.32; with YILVYSSVTRRYHKSRSYVG, -0.09 ± 0.29.
LAWMWYQGVSLRNKGGGMFY showed an amyloid nucleation score of -0.659 ± 1.
With FSVLVPMYK the figure was -0.361 ± 0.6.
